Measured values taken from patent US20070207522A1 (UNIVERSITY OF VIRGINIA PATENT FOUNDATION, published 2007).
One block for each binder: values may come before it.

Columns and labels:
human syndecan-1 [1] = biological target: T1, human syndecan-1 (human, UniProt P18827 23-310); test: lacritin affinity column, biotinylated cell surface proteins, elution with 1 M NaCl, sequencing
T1 construct: also called mammalian syndecan-1; CD138
T1 sequence (looked up): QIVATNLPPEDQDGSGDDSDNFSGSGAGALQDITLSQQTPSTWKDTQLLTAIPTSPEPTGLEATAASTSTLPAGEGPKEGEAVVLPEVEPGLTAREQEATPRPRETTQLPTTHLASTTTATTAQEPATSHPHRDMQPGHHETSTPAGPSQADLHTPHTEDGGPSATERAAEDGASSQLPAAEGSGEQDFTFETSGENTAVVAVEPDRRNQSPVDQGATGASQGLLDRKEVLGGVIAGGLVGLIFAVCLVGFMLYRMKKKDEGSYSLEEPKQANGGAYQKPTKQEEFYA
Experimental: (§1) After washing extensively in physiological salt-containing buffer, bound protein was eluted with 1 M NaCl, and identified with avidin-peroxidase using an ECL blot method. […] 293T cells stably transfected with human syndecan-2 or −4 were kindly provided by Dr. Atsushi Utani (Chiba University). […] Immunolocalization of syndecan-1 in human lacrimal glands was performed using anti-human syndecan-1 antibody (CD138).

human syndecan-1 [2] = biological target: T1, human syndecan-1; test: pull-down from lysates of transfected cells with intein-tagged lacritin, SDS PAGE
Experimental: as §1

human syndecan-2 = human syndecan-2 (human, UniProt P34741 19-201); test: pull-down from lysates of transfected 293T cells with intein-tagged lacritin
Sequence of human syndecan-2 (P34741 19-201 limits assumed): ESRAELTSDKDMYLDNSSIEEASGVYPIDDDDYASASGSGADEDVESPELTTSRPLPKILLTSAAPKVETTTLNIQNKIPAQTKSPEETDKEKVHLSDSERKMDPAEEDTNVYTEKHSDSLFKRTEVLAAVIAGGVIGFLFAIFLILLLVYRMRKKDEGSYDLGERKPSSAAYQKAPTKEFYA
Experimental: as §1

human syndecan-4 = biological target: T2, human syndecan-4 (human, UniProt P31431 19-198); test: as above
T2 sequence (looked up): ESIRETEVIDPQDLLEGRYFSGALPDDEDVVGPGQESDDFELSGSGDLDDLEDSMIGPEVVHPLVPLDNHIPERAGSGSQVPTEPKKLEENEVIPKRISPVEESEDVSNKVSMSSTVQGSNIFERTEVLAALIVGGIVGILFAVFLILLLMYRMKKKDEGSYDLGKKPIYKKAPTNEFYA
Experimental: as §1

human syndecan-1 [3] = biological target: T1, human syndecan-1; test: pull-down from lysates of transfected cells with intein-tagged deletion mutant
Experimental: as §1

binding result (human syndecan-1 [1]): binds
B1: mature lacritin (recombinant, from pLAC, cleaved from intein) (ligand)
chain: EDASSDSTGADPAQEAGTSKPNEEISGPAEPASPPETTTTAQETSAAAVQGTAKVTSSRQELNPLKSIVEKSILLTEQALAKAGKGMHGGVPGGKQFIENGSEFAQKLLKKFSLLKPWA
notes: also called soluble lacritin

binding result (human syndecan-1 [2]): binds | binding result (human syndecan-2): no binding | binding result (human syndecan-4): no binding
B2: intein-tagged lacritin (pLAC lacritin-intein fusion) (ligand, not shown: small tags and cut ends)
chain: B1 chain

binding result (human syndecan-1 [3]): no binding
B3: intein-tagged lacritin deletion mutant C-25 (ligand)
chain: EDASSDSTGADPAQEAGTSKPNEEISGPAEPASPPETTTTAQETSAAAVQGTAKVTSSRQELNPLKSIVEKSILLTEQALAKAGKGMHGGVPGG
notes: Pull-downs used 'intein deletion mutants'; also called lacritin lacking 25 C-terminal amino acids; not shown: intein tag of vector pTYB11
